Test results from the nanobody polyreactivity screen of Harvey et al. (2022).

Experiment: yeast display, Sf9 membrane polyspecificity reagent, FACS + sequencing; frameworks hold sequencing errors
Procedure, shortened: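 Polyreactivity labels are assigned by the sorting gate from which each nanobody was recovered. The gates were low and high (top ~1%), set on anti-HA fluorescence for expression and streptavidin fluorescence for reagent binding. Before sorting, galactose-induced (36–48 hours) yeast display cells were stained for 1 hour at 4 °C with 10% biotinylated, detergent-solubilized Sf9 membrane reagent.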

| Sequence | polyreactivity (PSR sort gate) |
| --- | --- |
| QVQLVESGGGLVQAGGSLLLTCAASGRIISLYAMGWYRQAPGKERELVAGISGGTIKYYADSLKGRFTISRDNAKNTVYLQMNSLKAEDTAVYYCAAKPTYRGYGYGSWGHGTQVTVSS | low polyreactivity |
| QVQLVESGGGLVQAGGSLRLSCAASGFTLFYNAMGWYRQAPGKERELVAAITARGGGTYYADSVKGRFTISRDNAKNPVYLQMNSLKPEDTAVYYCAADSFIPPYDHWGQGTQVTVSS | low polyreactivity |
| QVQLVESGGGLLQAGGSLRLSCAASGRTFNYYAMGWYRQAPWKESELVADIRGRGGSTYYADSVKGRFTISRDNAKITVYLQMNSLKPEDKAVYYCARRSPYPYSIYYYWGQGTQVTVSS | high polyreactivity |
| QVQLVESGGGLVQAGGRLRLSCAATGRTFLPNAMGWYRQAPGKERELVASINGDGTTNYADSVKGRFTISRDNAKNTVYLQMNSLKPEDTAVYYCAADGYGGYYRGTYYTVYYWGQGTQVTLSS | low polyreactivity |
| QVQLVESGGGLVQAGGSLRLSCAASGSIFAWYGMGWYRQAPGKERELVAAITSTGSTYYADSVKGRFTISRDNAKNTVYLQMNSLKPEDTAVYYCNDYSVYLWRPGDYWGQGTQVTVSS | low polyreactivity |
| QVQLVESGGGLVQAGGSLRLSCAASGSIFLYYTMGWYRQEPGKERELVAAITWSGASTYYADSVKGRFTISRDNAKNTVYLQMNSLKPEDTAVYYCATRYRYRYWGQGTQVTVSS | high polyreactivity |
| QVQLVESGGGLVQAGGSLPLSCAASGSNLRRYDMGLYRQAPGKERELVAAISSSGGSTYYADSVKGRFTISRDNAKNTVYLQMNSLKPEDTAVYYCAADIYDDDRSEYTEYDYWGQGTHVTVSS | low polyreactivity |
| QVQLVESAGGLVQAGGSLRLSSGASGSTFNTYAMGWYRQAPGKERELVAAITYNGGSTYYADSVKGRFTISRDNAKNTVYLQMNSLKPEDTAVYYCAAPRSRSRTSRFEYWGQGTQVTVSS | high polyreactivity |
| QVQLVESGGGLVQAGGSLRLICAASGLTFDTYSMGWYRQAPGKERELVAAISIGGRTNYADSVKGRFTISRDNAKNTVYLQMNSLKPEDTAVYYCARVFRYNSYYLPYDYWGQGTQVTVSS | high polyreactivity |
| QVQLVESGGGLVQAGGSLRLSCAASGRIFWYYTMGWYRQAPGKERELVAAISNGGSTYYADSVKGRFTISRDNAKNTVYLQMNSLKPEDTAVYYCAAVGARGGYFRMDYWGQGTQVTVSS | high polyreactivity |
| QVQLVESGGGLVQAGGSLRLSCAASGYTFVNYAMGWYRQAPGKEREFVAAISRSGGSTYYADSVKGRFTISRDNAKNTVYLQMNSLKPEDTAVYYCALRGYPPYNYYYWGQGTQVTVSS | high polyreactivity |
| QVQLVESGGGLVQAGGSLRLSCAASGRIFNTYAMGWYRQAPGKERELVAAITSSGGSTYYADSVKGRFTISRDNEKNTVYLQLNSLKPEDTAVYYCAKPWYVRGGSSKYVYWGQGTQVTVSS | high polyreactivity |
| QVQLVESGGGLDQAGGSLRLSCAASGSIFDSNAMGWYRQAPGKERELVAAISLSGGSTYYADSVKGRFTISRDNAKNTVYLQMNSLKPEDTAVYYCAKDGWYEYYWGQGTQVTVSS | low polyreactivity |
| QDQLVESGGGLVQAGGSLRLSCAASGSTFVGNAMGWYRQAPGKERELVAAISRTGGSTYYADSVKGRFTISRDNAKNTVYLQMNSLKPEDTAVYYCAARRYDIRYYYVTYRPPKMYYWGQGTQVTVSS | high polyreactivity |
| QVQLVESGGGLVQAGGSLRLSCAASGSTFEFYAMGWYRQAPGKERELVAAIWRGGSTHYADSVKGRFTISRDNAKNTVYLQMNSLKPEDTAVYYCAASPYIFWRFEYWGQGTQVTVSS | low polyreactivity |
| QVQLVESGGGLVQAGGSLRLSCAASGSIFDYNAMGWNRQAPGKETELVAAITSTDSTYADSVKGRFTISRDNAKNTVYLQMNSLKPEDTAVYYCAAEDVIYYLTGQWREYDYWGQGTQVNVSS | low polyreactivity |
| QVHLVESGGGLVQAGGSLRLSCAASGRISYFYAMGWYRQAPGKESELVATITTSAGRTYYADSVKGRFTISRDNAKNTVYLLMNSLKPEDTAVYYCAASRYTYPYNYWGQGTQVTVSS | high polyreactivity |
| QVQLVESGGGLVQAGGSLRLSCAASGYTFRVYTMGWYRQAPGTERELVAAISRRGSRTYYADSVKGRFTISRDNAKNTVYLQMNSLKPEDTAVYYCAAGIPYPDDYWGQGSQVTVSS | high polyreactivity |
| QVQLVESGGGLVHAGGSLRLSCAAYGSTFVRNAMGCYRQAPGKERELVAAITSRGGSTYYADSVKGRFTISRDNAKNTVYLQMNSLKPEDTAVYYCAARFGVKRGQYDYWGQGTQVTVSS | high polyreactivity |
| QVQLVESGGGLVQAGGSLRLSCAASGRIFDRNAMGWYRQAPGKERELVATISSGDTTDYADSVKGRFTISRDNAKNTVYLQMNSLKPEDTAVYYITIYNYWGQGTQVTVSS | low polyreactivity |
| QVQLVESGGGLVQAGGSLRLSCAASGSISPWYAMGWYRQAPGKERELVAAIRGNGGSTYYADSVKGRFTISRDNAKNTVYLQMNSLKPEDTAVYYCNAVYRRPIFYYWGQGTQVTVSS | low polyreactivity |
| QVQLEESGGGLVQAGGSLRLSCAASGSTFRAYAMGWYRQAPGKERELVAAITSTTDTYYADSVKGRFTISRDNAKNTVYLQMNSLKPEDTAVYYCASVWVWTYDYWGQGTQVTVSS | low polyreactivity |

| Sequence | polyreactivity (PSR sort gate) |
| --- | --- |
| QVQLVESGGGLVQAGGSLRLICAASGSIFTPYAMGWYRQAPGKERELVAAISTSGGSTYYADSVKGRFTISRDNAKNTVYLQMNSLKPEDTAVYYCYTVYYSQREIYYWGYDSWGQGTQVTVSS | high polyreactivity |
| QVQLVESGGGLVQAGRSLRLSCPASGSTFYTNHMGWYRQAPGKERELVAAITSAGNTNYADSVKGRFTISRDNAKNTVYLQMNSLKPEDTAVYYYYYYQYDYWGQGTQVTVSS | low polyreactivity |
| QVQLVESGGGLVQAGGSLRLSCSASGLIFSSYAMGWYRPAPGKERELVAAISRGGSTNYADSVKGRFTISRDNAKNTVYLQMNSLKPEDTAVYYCNDYSWVNRYDYWGQGTQVTVSA | high polyreactivity |
| QVQLVESGGRLVQAGGSLRLSCAASGRTFQSYAMGWYRQAPGKERELVAAITITGGRTYYADSVKGRFTISRDNAKNTVYLQMNSLKPEDTAVYYCAAEEYSHYTLGYDYWGQGTQVTVSS | low polyreactivity |
| QVQLVESGGGLVQAGGSLRLSCAASGSTFPGNAMGWYRPAPGKERELVARINDGADTNYADSVKGRFTISRDNAKNTVYLQMNSLKPEDTAVYYCAKPYYDGRTHFDSWGQGTQVTVSS | low polyreactivity |
| QVQLVESGGGLVQAGGSLRLSCGASGRTVGGNAMGWERPAPGQERELVAAITNSASTYADSVKGRFTISRDNAQNTVYLLMNSLKPEDTAGSYCAARTLPRVYRNTFGYWGQGTQVTVSS | low polyreactivity |
| QVQLVESGGGLVQAGGSLRLSCAASGYIFKSNVMGWYRQAPGKERELVAAITTDGSTYYADSVKGRFTISRDNAKNTVYLQMNSLKPEDTAVYYCAAGKAYWYARKPYARYYYWGQGTQVTVSS | high polyreactivity |
| QVHLVESGGGLVQAGGSLRLSCAASGSIFAVYAMGWYRQAPGKERELVAAITRSGRTSYADSVKGRFTISRDNAKNTVYLQMNSLKPEDTAVFYCAVRTYYPTFGGFYYWGQGTQVTVSS | high polyreactivity |
| QVQLVESGGGLVQAGGSLRLSCAASGSIFGHNTMGWYRPAPGKERELVAAITWNGGRTYYADSVKGRFTISRDNAMNTVYLQMNSLKPEDTAVYYCNAVVKTYAYKAHRYPSTRLNYWGQGTQVTVSS | high polyreactivity |
| QVQLVESGGGLVQAGGSLRLSCAASGRIFQTYAMGWYRQAPGKERELVASISWSGGSTYYADSVKGRFTILRDNAKNTVYLQMNSLKPEDTAVYYCAAVYYSTDYYFWYDYWGQGTQVTVSS | low polyreactivity |
| QVQLVESGGGLVQAGGSLRLSCAASGSIFPIYAMGWYRQATGKERELVAAINSGGGTNYADSVKGRFTISRDNAKNTVYLQMNSLKPEDTAVYYCAKSRYDYTKTEGGYWGQGTQVTVSS | low polyreactivity |
| QVQLVESGGGLVQAGGSRRLSCAASGSIFATYAIGWYRQAPGKERELVAAISWSGGRTYYADSVKGRFTISRDNAKNTVYLEMNSLKPEDTAVYYCNAVTLLGTRGYGYWGQGTQVTVSS | high polyreactivity |
| QVQLVESGGGLVQAGGSLRLSCAASGITLGRYAMGWYRQAPGKERELVAAISWSGGTTYYADSVKGRFTISRDTAKNTVDLQMNSLKPEDTAGYYCTKESPYRQWGWSYYYWGQGTQVTVSS | high polyreactivity |
| QFQLVESGGGLVQAGGSHRLSCAASGRIVDYYAMGWYRQAPGKERDLVAAISTSGGSTYYADSVKGRFTISRDNAKITVYLLMNSLKPEDTAVYYCGKDITVTYPVLDYDYWGQCTQVTVSS | low polyreactivity |
| QVQLVESGGGLVQAGGSLRLSCAASGFTNAMGWYRQAPGKERELVAAISYSGDSTNYADSVKGRFTISRDNAKNTVYLQMKSLKPEDSAVYYCNASSPYDYDWGQGTQVTVSS | low polyreactivity |
| QVQLVESGGGLVQAGGSLRLSCAASGRTFVPYAMGWYRQAPGKERELVAAINSGTRTYADSVKGRFTISRDNAKNTVYLQMNSLKPEDTAVYYCARRGYYYDYWGQGTQVTVSS | high polyreactivity |
| QVQLVESGGGLVQAGGSLRLSCAASGITFKSYDMGWYRQAPGKERELVAAITSGVSTHYADSVKGRFTISRDNAKNTVYLQMNSLKPEDTAVYYCAADYTWYYPYWIMDYWGQGTQVTVSS | low polyreactivity |
| QVQLVESGGGLVQAGGSLRLSCAASGSTFDYYDMGWYRQAPGKERELVAAISSGGDSTYYADSVKGRFTISRDNAKNTVYLQMNSLKPEDTAVYYCAAAVYYGQSVWYYYWGQGTQVTVSS | high polyreactivity |
| QVQLVESGGGLVQAGGSLRLSCAASGLILAPNAMGWYRQAPGKERELVAAITFRGVRTYYADSVKGRFTISRDNEKNTVYLQMNSLKPEDTAVYYCAAAVSKHYPYNYWGQGTQVSVSS | high polyreactivity |
| QVQLVESGGGLVQAGGSLRLSCAASGSIFYKYALGWYRQAPGKERELVASITWSDGNTNYADSVKGRFTISRDNAKNTVYLQMNSLKPEDTAVYYCADGGWYPTSRIFDYWGQGTQVTVSS | low polyreactivity |
| QVQLLESGGGLVQAGGSLRLSCAASGITFSRNAMGWYRQAPGKERELVATITSGGSTNYADSVKGRFTITRDNAMNTVYLQMISLKPEDTAVYYCYAVWNTFISGRSYEYWGQGTQVTVSS | low polyreactivity |
